Publication PMC6858323, “Multiple conformations facilitate PilT function in the type IV pilus” (Nature Communications, 2019)
One block for each substance: values may come before it.

Key:
[1] = biological target: PilB from Geobacter metallireducens (PilB^Gm) (Geobacter metallireducens); assay: cryo-EM structure; PilB^Gm 0.6 mg/ml without added nucleotide, 4 °C; 2D class averages and 7.8 Å 3D map, CCOCCO conformation
[2] = biological target: PilT4 from Geobacter metallireducens (PilT^Gm) (Geobacter metallireducens GS-15); assay: crystal structure; PilT^Gm with 2 mM ATP and 2 mM MgCl2; 9% PEG4000, 100 mM MES pH 6, 200 mM MgCl2; 20 °C; 1.9 Å; CCCCCC conformation
[3] = biological target: PilT4 from Geobacter metallireducens (PilT^Gm) (Geobacter metallireducens GS-15); assay: crystal structure; PilT^Gm with 2 mM ANP and 2 mM MgCl2; 2% benzamidine-HCl, 100 mM HEPES-HCl pH 7.9, 200 mM ammonium acetate, 17.5% PEG3350; 20 °C; anisotropic 4.1, 6.7 and 4.0 Å; CCOCCO conformation
[4] = biological target: PilT4 from Geobacter metallireducens (PilT^Gm) (Geobacter metallireducens GS-15); assay: cryo-EM structure; PilT^Gm 0.5 mg/ml incubated 10 min at 4 °C with 1 mM MgCl2 plus 1 mM ATP; 4.4 Å map, CCCCCC conformation; 2D class averages also with 1 mM ATP plus 0.1 or 1 mM ADP
[5] = biological target: PilT4 from Geobacter metallireducens (PilT^Gm) (Geobacter metallireducens GS-15); assay: crystal structure; PilT^Gm without added nucleotide (partial-occupancy ADP, pH 7.1, 3.0 Å) or preincubated with Mg2+ and ATP and unbound nucleotide removed (full-occupancy ADP, pH 7.6); 11.5% PEG3350, 200 mM L-proline, 100 mM HEPES; 20 °C; OCOCOC conformation, pseudo-C3
[6] = biological target: PilT4 from Geobacter metallireducens (PilT^Gm) (Geobacter metallireducens GS-15); assay: cryo-EM structure; PilT^Gm 0.5 mg/ml without added nucleotide, 4 °C; untilted 2D class averages and 40° tilted 3D maps (OCOCOC 4.0 Å, OOCOOC 4.1 Å); 2D class averages also with 1 mM MgCl2 plus 0.1 or 1 mM ADP
[7] = biological target: reductively methylated PilT4 from Geobacter metallireducens (methylated PilT^Gm) (Geobacter metallireducens GS-15); assay: crystal structure; methylated PilT^Gm, no added nucleotide; vapor diffusion 20 °C; 200 mM ammonium sulfate, 100 mM Bis-Tris-HCl pH 6.5, 25% PEG3350; 3.3 Å; OCOCOC conformation

- stoichiometry N [1]: 6
Substance: PilB from Geobacter metallireducens (PilB^Gm) (enzyme)

- stoichiometry N [2]: 6
- stoichiometry N [3]: 6
- stoichiometry N [4]: 6
- stoichiometry N [5]: 6
- stoichiometry N [6]: 6
Substance: PilT4 from Geobacter metallireducens (PilT^Gm) (enzyme)

- stoichiometry N [7]: 6
Substance: reductively methylated PilT4 from Geobacter metallireducens (methylated PilT^Gm) (enzyme)
